# Assay results from patent US20210205462A1, “Translocation into Eukaryotic Cells” (The University Court of the University of Aberdeen, priority 2018, published 2021).
# B1: SpHtp1a: SpHtp1 homolog shown in FIG. 6 (protein)
# chain: MRIYHPLTLAALCVVLHESLGAAQHSNNVARLEHYSVAEIEHWEKRHLRNSDSRGHRHHAHHGQVIDKENNNSQEQATTGNSVETNQVPFTQPTKDKTASIKTAVFKLLRENKLKTKNAGNGHAHDDDDDDDSNFSDDDVPTNAPTGAPTGAPTDAPTNAPTDAPTDAPTDAPTDAPTDAPTDAPTDAPTTLPPMPRRRSHRCPDRHSHRCDPRRTHGCPD
# modifications: SpHtp1a (1-221)
# B2: SpHtp1: putative effector protein from the fish pathogenic oomycete Saprolegnia parasitica, full-length 198 amino acids (protein)
# chain: MRIHHPLTLAALCVVLHESLGAAQHSNNVARLEHYRIAEIEHWEKRHLRSDSRGHRHHAHHGQVIDKENNNSQEQATTGNSVETNQVPSTEPTKDKTTPMKNALFKLFREKKLKTKNAGNGHAHDDDDDSDFSDDDVPTNAPTDAPTGAPTDAPTDAPTVAPTDAPTDAPTEAPTNAPTGTDAPTDAPTDAQVVPTFD
# modifications: SpHtp1 (1-198)
# How the values were obtained:
# RTG-2 cells = assay: Translocation mechanism study with uptake pathway inhibitors in RTG-2 cells; format: cell-based, rainbow trout; conditions: 80 μM dynasore, 1× Brefeldin A or 100 μM nystatin pre-incubation; 3 μM SpHtp1^24-68-mRFP 1 h at 18° C.
# Method: (§1) Cell culture maintenance of fish RTG-2 (ATCC CCL-55) was done according to the manufacturer's or publisher's instructions. L-15 medium was supplemented with 10% FBS, 100 units/ml Penicillin and 100 μg/ml Streptomycin. Wells containing cover slips with attached cells of 80% confluent were washed 2× with HBSS before translocation experiments.
# For experiments investigating translocation mechanism, cells were pre-incubated with various inhibitors (80 μM of dynasore, 1× Brefeldin A or 100 μM nystatin) for 1 h at 18° C., 2 h for dynasore (FIG. 2). Afterwards, 3 μM SpHtp1^24-68-mRPF were incubated for another 1 h at 18° C. For the time course experiment (FIG. 2) cells were pre-incubated with 10 μM dynasore and the incubation with 3 μM SpHtp1^24-68-mRPF at 18° C. stopped at the times as indicated. In order to investigate the influence of SpHtp1^24-198-His on the vesicle release of SpHtp3^21-211-RFP, 3 μM of each protein was pre-incubated in L-15 for 30 min at RT before added to the cells for the usual incubation of 1 h at 18° C.
# (§2) After incubation human as well as fish cells were washed 3× with HBSS and fixed with 4% ice-cold PFA in PBST (PBS+0.1% tween) for 15 min at RT. Residual PFA was removed with 5× washing steps with PBS. Cells were mounted with Vectashield with DAPI. Samples were analysed by a Zeiss LSM710 confocal microscope or an epifluorescence microscope (Zeiss Imager M2 with metal halide light source). For quantification mean intensity or vesicles per cell were counted with ImageJ. A maximum of 5 cells were analysed from the same picture. Bars denote s.e.m of 50 cells counted per sample.
# human A549 cells [1] = assay: Inhibitor studies of SpHtp1^24-68-mRFP translocation into A549 cells; format: cell-based
# Method: as §1, with “human A549 cell,” for “fish RTG-2 (ATCC CCL-55)”, “DMEM” for “L-15”, “before the” for “before”
# For the inhibitor studies, A549 cells were pre-incubated with different concentrations of SCH-202676 (allosteric inhibitor via disulfhydryl group) as indicated for 1 h at 37° C. and after this incubated for another 1 h at 37° C. with 3 μM SpHtp1^24-68-mRPF.
# as §2
# β2-adrenergic receptor [2] = target: T1, β2-adrenergic receptor (Homo sapiens, UniProt P07550)
# fish cells = assay: Translocation into fish cells; format: cell-based
# [3] = tested on: human cells (such as HEK cells or the human epithelial lung cell line A549); assay: Translocation into human cells; format: cell-based
# β2-adrenergic receptor [4] = target: T1, β2-adrenergic receptor; assay: Co-immunoprecipitation with anti-β2 adrenoceptor antibody; format: binding; set-up: confluent A549 cells from a 75 cm^2 flask where detached and resuspended in 500 μl PBS; The cells were lysed by sonication; endogenous in cells; host or cells: A549 (human lung epithelial cell line), sonicated lysate supernatant; conditions: A549 lysate, 10 μM SpHtp1^24-68-RFP; FIG. 3C
# Method: For co-immunoprecipitation (FIG. 3) confluent A549 cells from a 75 cm^2 flask where detached and resuspended in 500 μl PBS. The cells were lysed by sonication (3×30 sec, 30% intensity, 1 min break on ice) and cell debris removed by centrifugation (16,000×g, 25 min, 4° C.). The supernatant was supplemented with 10 μM SpHtp1^24-68-RFP and 2.5 μg of an anti-82 adrenoceptor and incubated overnight on rotator at 4° C. The next day 200 μl PBS-equilibrated protein G/A beads were added for 2.5 h on rotator at 4° C. After, beads were washed 5 times with 1 ml PBS each. The elution was done with SDS sample buffer and boiling at 95° C. for 10 min.
# For the immunoblot, samples were transferred to a nitrocellulose membrane and blocked with 5% milk powder in PBST (PBS+0.1% tween) for 1 h at RT. Incubation of the first antibody (anti-(32 adrenoceptor, 1:200) was done overnight on rotator at 4° C. Excess of antibody was removed by 3 washing steps with PBST, 5 min each. The secondary antibody (anti-rabbit HRP-coupled, 1:1000) was incubated for 1 h at RT in PBST with 5% milk powder. The membrane was washed 4 times (2×PBST and 2×PBS) before the bands were visualised with an ECL substrate and a developer.
# human A549 cells [5] = assay: Translocation of SpHtp1^24-68-mRFP into human A549 cells; format: cell-based; conditions: see FIG. 2A, 2C
# Method: as §1, with “human A549 cell,” for “fish RTG-2 (ATCC CCL-55)”, “DMEM” for “L-15”, “before the” for “before”
# For translocation experiments using SpHtp1-coupled microparticles (FIG. 1), 300 μg carbon beads were pre-incubated with 3 μM SpHtp1^24-68-mRPF in 300 μl DMEM without Fetal Calf Serum for 1 h at 37° C. on a rotator to couple the SpHtp1 translocation sequence to the particles. […] Following coupling, the supplemented medium was applied to the cells for 1 h at 37° C. For translocation experiments using SpHtp1^24-68-mRPF (FIG. 2) cells were incubated with 3 μm SpHtp1^24-68-mRPF for 1 h at 37° C.
# as §2
# cells = assay: Cytotoxic effects, cell morphology and viability after extended incubation; format: cell-based; conditions: extended incubation periods of up to 24 hours
# SpHtp3 = assay: Protein cross linking of SpHtp1 and SpHtp3; format: binding, Saprolegnia parasitica; conditions: PFA cross link; FIG. 5E
# Method: In order to detect a direct interaction, 10 μg of SpHtp1 and 10 μg of SpHtp3 or each protein alone were pre-incubated in PBS (total: 15 μl) for 15 min at RT. For cross linking 15 μl ice-cold 4% PFA/PBS (final concentration: 2%) was added and incubated for 10 min at RT. The reaction was stopped with 7 μl Laemmli loading dye and subsequent heating to 65° C. for 10 min. Complex formation was investigated by SDS-PAGE and confirmed by LC-MS/MS.
molecule,measurement,setting,value
C[C@H]1CCC/C=C/[C@@H]2C[C@H](O)C[C@H]2[C@H](O)/C=C/C(=O)O1 [Brefeldin A],effect on SpHtp1^24-68-mRFP translocation,RTG-2 cells,no effect
CN=c1nc(-c2ccccc2)n(-c2ccccc2)s1 [SCH-202676],binding of SpHtp1^24-68-mRFP to the cells after pre-incubation with inhibitor,"human A549 cells [1]; 10 μM SCH-202676, FIG. 3A",not influenced
same,translocation of SpHtp1^24-68-mRFP into cells after pre-incubation with inhibitor,"human A549 cells [1]; 10 μM SCH-202676, FIG. 3A",inhibited
same,concentration dependence of inhibition of translocation,"human A549 cells [1]; different concentrations, 1 h at 37° C., FIG. 3B",concentration-dependent
CNCC(O)c1ccc(O)c(O)c1 (stereo not drawn) [adrenalin],effect of endogenous receptor ligands on the uptake of SpHtp1,human A549 cells [1],do not have an effect
O=C(N/N=C/c1ccc(O)c(O)c1)c1cc2ccccc2cc1O [dynasore],effect on SpHtp1^24-68-mRFP translocation,RTG-2 cells,accumulation of red fluorescence at the membrane
NC[C@H](O)c1ccc(O)c(O)c1 [noradrenalin],effect of endogenous receptor ligands on the uptake of SpHtp1,human A549 cells [1],do not have an effect
C[C@@H]1[C@H](O)[C@@H](C)/C=C/C=C/CC/C=C/C=C/C=C/C=C/C(O[C@H]2O[C@H](C)[C@@H](O)[C@H](N)[C@@H]2O)CC2O[C@](O)(CC(O)C(O)CCC(O)CC(O)CC(O)CC(=O)O[C@H]1C)CC(O)C2C(=O)O (stereo partly drawn) [nystatin],effect on SpHtp1^24-68-mRFP translocation,RTG-2 cells,no effect
SpHtp1^24-68-mRFP,"uptake into the cell, EC50",β2-adrenergic receptor [2],1.23 µM
B1,translocation into fish cells,fish cells,able to translocate into both fish and human cells
same,translocation into human cells,[3],able to translocate into both fish and human cells
B2,interaction with the β2-adrenergic receptor by co-immunoprecipitation,β2-adrenergic receptor [4],at least indirect interaction
same,entry into human cells,[3]; via the β-adrenoceptor,able to enter human cells
same,EC50,"human A549 cells [5]; cell line not given, read-out: uptake into the cell, EC50",1.23 µM
same,time of binding of SpHtp1 to the cell surface,human A549 cells [5],5 to 10 min
same,time to significant uptake into the cell,human A549 cells [5],20 to 30 min
same,"cytotoxic effects, cell morphology, viability",cells,"do not have any immediate cytotoxic effects on cells, and do not alter cell morphology or viability"
same,"in vitro complex formation after cross link (SDS-PAGE, LC-MS/MS)",SpHtp3,additional band for a cross-linked SpHtp1-SpHtp3 complex
